Results from paper PMC5768801, “The PII signaling protein from red algae represents an evolutionary link between cyanobacterial and Chloroplastida PII proteins” (Scientific Reports, 2018).

What was measured:
ScPipX = test: SPR analysis of PipX binding to PII proteins; design: species or system Synechocystis sp. PCC 6803; settings: His-tagged ScPipX immobilized, 200 nM PII protein, ADP
Method: Additionally, we assessed whether PpPII could bind to PipX by surface plasmon resonance (SPR) spectroscopy (Supplementary Fig. S3C). The N-terminally His-tagged ScPipX was immobilized on a Ni-HTG sensor chip and probed with ScPII together with effector molecule ADP. Interaction between PpPII and PipX was not observed.
SPR experiments were conducted using a ProteOn XPR36 system (Bio-Rad) in HBS buffer (10 mM HEPES, 150 mM NaCl, 1 mM MgCl2, and 0.005% Tween 20, pH 7.5) at 25 °C. Immobilization of ligand, 1 µM His6-PipX (200 µl), was performed on a Ni^+-loaded HTG sensor chip (Bio-Rad Laboratories) in the vertical orientation into the channel L2, and the continuous running buffer was used at a flow rate of 30 µl/min. The immobilization level was approximately 3000 resonance units (RU). […] The binding of PII proteins to PipX was recorded as a response signal difference of L2 and L1. All binding sensorgrams were collected, processed and analyzed using the integrated ProteOn Manager software (Bio-Rad Laboratories).
(§1) Figure S3. […] Complex formation between PipX and ScPII (A) or PpPII (B) was assessed by pull-down. […] (C) Complex formation between PipX and PII proteins was assessed by SPR. […]

ScNAGK = molecular target: T1, ScNAGK (Synechocystis sp., UniProt P73326); test: Coupled NAGK activity assay, ScNAGK; assay type: biochemical, Synechocystis sp. PCC 6803
T1 sequence (P73326 1-297): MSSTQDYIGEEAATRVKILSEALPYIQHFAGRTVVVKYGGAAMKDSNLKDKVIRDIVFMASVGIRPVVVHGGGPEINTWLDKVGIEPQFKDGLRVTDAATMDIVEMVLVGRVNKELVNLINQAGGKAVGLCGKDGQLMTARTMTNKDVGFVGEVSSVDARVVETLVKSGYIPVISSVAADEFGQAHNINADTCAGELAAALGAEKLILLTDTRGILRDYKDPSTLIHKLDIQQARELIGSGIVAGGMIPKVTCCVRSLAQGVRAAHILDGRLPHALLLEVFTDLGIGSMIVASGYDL
Method: The assess the activity of ScNAGK was measured with an enzyme assay, in which the ADP production was coupled to the NADH oxidation by the auxiliary enzymes pyruvate kinase and lactate dehydrogenase according to previously described procedure[32],[50]. […] The oxidation reaction of NADH was recorded for 10 min using spectrophotometer (SPECORD 210 PLUS, Analytik Jena AG) at 340 nm. […] The NADH molar absorption coefficient is 6178 L mol^−1 cm^−1 for at 340 nm, which was used for calculation. […] From the velocity slopes, the enzymatic constants Km, Kcat and IC50 were calculated using the Graph-Pad Prism software (GraphPad Software, USA).

PipX = test: Pull-down analysis of PipX binding to PII proteins; design: species or system Synechocystis sp. PCC 6803; settings: 10 µM proteins, 1 mM ADP, Strep-Tactin column, Tricine-SDS-PAGE
From the text: In cyanobacteria, PipX is the second known receptor of PII signaling. We questioned whether red algal PII proteins have lost or retained the ability to bind to PipX. To test this possibility, we first analyzed complex formation using pull-down experiments (Supplementary Fig. S3A and B). The PII protein from Synechocystis sp. PCC 6803 (ScPII) was mixed with PipX in the presence of ADP and then the Strep-tagged PII was immobilized on the Strep-Tactin II column (Supplementary Fig. S3A). After extensive washes, the proteins were eluted with desthiobiotin and analyzed by Tricine-SDS-PAGE. Both proteins were detected in the elution. Thus, confirming previous studies[16]–[18], cyanobacterial PII was bound to PipX. When PpPII in the presence of PipX was immobilized on the column, no PipX signal was detected in the elution (Supplementary Fig. S3B).
For complex formation, the binding reactions were done in 300 μl of buffer (100 mM Tris HCl, pH 8.0, 150 mM NaCl, 1 mM EDTA) by adding 10 µM of purified proteins: His6-ScPipX and Strep-tag ScPII or Strep-tag PpPII. […] The eluted fractions were analyzed by Tricine-SDS PAGE[51] and stained with SimplyBlue™ SafeStain (Invitrogen).
as §1

B1: PpPII: PII from the red alga Porphyra purpurea, recombinant Strep-tagged or His-tagged protein (protein)
chain: MKKIEAIIRPFKLNEVKLALVKGGIGGMTVVKVSGFGRQKGQTERYKGSEYSIDIIDKIKIEIIVSDDKVNSITEIIIKTAKTGEIGDGKIFISDVEQVIRIRTNDLNSAAL
modifications: left off: Strep-tag II, C-terminal, kept
notes: PII from the red alga Porphyra purpurea, recombinant Strep-tagged or His-tagged protein
interaction with PipX (SPR) (ScPipX): not observed | raise of the IC50 for arginine on addition of PpPII to ScNAGK (ScNAGK; 50 mM NAG, 10 mM ATP, without glutamine): approximately 4 fold | increase of the overall NAGK catalytic efficiency by complex formation with PpPII (ScNAGK; PpPII-complexed versus free ScNAGK): about 4 fold | complex formation with PipX (pull-down) (PipX): did not interact with PipX
